Assays:
[1] = target: human myeloperoxidase (human); experiment: SPR; BIAcore 3000; MPO immobilised on a CM5 chip through primary amino groups; apoA-I 0.5 nM to ~3000 nM flowed over at 20 uL/min in 10 mM PBS, pH 7.4; fit to 1:1 binding with a drifting baseline; apparent KD
[2] = target: human myeloperoxidase (human) (UniProt P05164); experiment: SPR; BIAcore 3000; MPO immobilised on a CM5 chip through primary amino groups; lipid-poor apoA-I 0.5 nM to 3 uM flowed over at 20 ul/min in 10 mM PBS pH 7.4; 1:1 binding with drifting baseline model; apparent KD

human myeloperoxidase (human), sequence (P05164 165-745): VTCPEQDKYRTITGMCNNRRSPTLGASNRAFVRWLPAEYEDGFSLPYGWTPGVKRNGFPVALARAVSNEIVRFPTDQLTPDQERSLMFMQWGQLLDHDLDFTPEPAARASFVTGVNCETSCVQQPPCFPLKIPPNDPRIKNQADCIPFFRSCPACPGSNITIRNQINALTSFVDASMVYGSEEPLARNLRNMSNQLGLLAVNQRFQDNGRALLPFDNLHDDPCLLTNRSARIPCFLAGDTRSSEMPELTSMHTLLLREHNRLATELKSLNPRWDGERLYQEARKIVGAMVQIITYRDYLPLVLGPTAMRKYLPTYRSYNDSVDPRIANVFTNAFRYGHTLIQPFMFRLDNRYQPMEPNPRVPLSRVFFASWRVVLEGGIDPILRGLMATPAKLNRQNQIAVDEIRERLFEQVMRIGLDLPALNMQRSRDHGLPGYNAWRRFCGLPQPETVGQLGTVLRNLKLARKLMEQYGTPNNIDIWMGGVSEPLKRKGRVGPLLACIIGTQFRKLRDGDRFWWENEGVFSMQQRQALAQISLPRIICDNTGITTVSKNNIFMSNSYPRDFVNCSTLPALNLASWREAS

Kd [1]: 75.1 nM
koff [1]: 0.00377 s⁻¹
kon [1]: 50200 M⁻¹ s⁻¹
Kd [2]: 75 nM
Substance: recombinant human apolipoprotein A-I, lipid-poor (from UniProt P02647 19-267) (natural protein)
